Experimental data published in patent US20220305082A1 (CENTRICSBIO, published 2022).

T1: mouse CD300c antigen (mouse)
T1 sequence (A2A7V7 whole entry, looked up): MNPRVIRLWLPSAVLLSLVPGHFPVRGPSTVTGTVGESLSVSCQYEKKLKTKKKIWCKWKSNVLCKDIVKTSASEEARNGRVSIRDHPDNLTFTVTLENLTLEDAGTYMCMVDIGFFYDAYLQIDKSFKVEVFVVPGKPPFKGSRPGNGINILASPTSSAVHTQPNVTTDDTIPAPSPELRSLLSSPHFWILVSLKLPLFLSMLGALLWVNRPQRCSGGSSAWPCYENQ

T2: CD300a antigen (12449-H08H, Sino Biological) (UniProt Q9UGN4 18-180)
T2 construct: Bought recombinant antigen
T2 sequence (looked up): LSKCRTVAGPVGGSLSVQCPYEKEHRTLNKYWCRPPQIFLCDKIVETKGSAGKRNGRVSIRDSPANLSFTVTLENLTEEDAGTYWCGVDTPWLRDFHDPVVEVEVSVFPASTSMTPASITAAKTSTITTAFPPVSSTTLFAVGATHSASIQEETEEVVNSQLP


Columns and labels:
mouse CD300c antigen = target: T1, mouse CD300c antigen; assay: cell-based or functional assay
[1] = target: T2, CD300a antigen (12449-H08H, Sino …); assay: binding ELISA with CD300a antigen
Protocol: To identify the antigen-binding ability of the anti-CD300c monoclonal antibody produced in Example 1, binding ELISA was performed. Specifically, each of the CD300c antigen (11832-H08H, Sino Biological) or CD300a antigen (12449-H08H, Sino Biological) in a coating buffer (0.1 M sodium carbonate, pH 9.0) was dispensed onto an ELISA plate at a concentration of 8 μg/mL per well, and then reaction was allowed to proceed at room temperature for 3 hours so that the antigen was bound to the plate. Washing was performed 3 times using phosphate buffered saline-Tween 20 (PBST) to remove unbound antigen, and then 300 μL of PBST supplemented with 5% bovine serum albumin (BSA) was added to each well. Reaction was allowed to proceed at room temperature for 1 hour, and washing was performed again using PBST. Then, the anti-CD300c monoclonal antibody was diluted in quadruplicate and added thereto. Reaction was allowed to proceed for 1 hour at room temperature for antigen binding. After 1 hour, washing was performed 3 times using PBST to remove unbound anti-CD300c monoclonal antibody, and then 4 μg/mL of an antibody for detection (HRP conjugated anti-Fc IgG) was added. […] Then, 2 N sulfuric acid solution was added to terminate the development, and the absorbance was measured at 450 nm to identify the antibodies that specifically bind to the CD300c antigen. […]

| Binder | cancer cell proliferation inhibitory effects (CT26 mouse colorectal cancer cell line, CCK-8), higher than the control group (mouse CD300c antigen) [%] | binding result [1] |
| --- | --- | --- |
| anti-CD300c monoclonal antibody SL18 (antibody, V domains shown) VH: RVQLLESGGGLVQPGGSLRLSCAASGFTFSDYHMHWVRQAPGKGLEWVSTISSSGGYTYYAESVKSRFTISRDNSKNTLYLQMNSLRAEDTAVYYCARSIRLPLDYWGQGTLVTVSS VL: QSVLTQPPSASGTPGQRVTISCSGNNIGSKGVHWYQQLPGTAPKLLIYEDSKRPSGVRDRFSGSKSGTSASLAISGLRSEDEADYYCQSYDSTKGVVFGGGTKLTVL | 38 |  |
| anti-CD300c monoclonal antibody CL10 (antibody, V domains shown) VH: EVQLLESGGGLVQPGGSLRLSCAASGFTFSSYGMHWVRQAPGKGLEWVSAISGSGGSTYYADSVKGRFTISRDNSKNTLYLQMNSLRAEDTAVYYCASGYGLMDVWGQGTLVTVSS VL: QSVLTQPPSASGTPGQRVTISCTRSSGIIASNYVQWYQQLPGTAPKLLIYRNNQRPSGVPDRFSGSKSGTSASLAISGLRSEDEADYYCSSYAGNNNLVFGGGTKLTVL | 15 |  |
| anti-CD300c monoclonal antibody CL7 (antibody, V domains shown, Full antibody from separate heavy and light chain vectors in 293T cells) VH: EVQLLESGGGLVQPGGSLRLSCAASGFTFSRYAMSWVRQAPGKGLEWVSAISGSGGSTYYADSVKGRFTISRDNSKNTLYLQMNSLRAEDTAVYYCARSSQGIFDIWGQGTLVTVSS VL: QSVLTQPPSASGTPGQRVTISCSGNNIGTRRVHWYQQLPDTAPKLLIYSKNNRPSGVPDRFSGSKSGTSASLAISGLRSEDEADYYCAAWDDSLSGPVFGGGTKLTVL | 66 | no binding (tested: 0.039, 0.63, and 10 µg/mL) |
